Experimental data as given in PMC9210681.
Residue numbers refer to the chain shown, from its start. Values belong to the substance of their own block, whether it stands above or below them.

How the values were obtained:
[1] = tested on: T1, AtsR (NCgl0886) (Corynebacterium glutamicum (RES167 parental strain)), ORF:74efc9ce; test: EMSA; conditions: 10 mM Tris-HCl pH 7.4 (Fig. 6A legend: pH 8.0), 5 mM MgCl2, 50 mM KCl, 5% glycerol, 0.1% NP40, 1 ug poly(dI:dC), 1 mM DTT, 20 ul, 40 ng DNA, room temperature …
T1 sequence: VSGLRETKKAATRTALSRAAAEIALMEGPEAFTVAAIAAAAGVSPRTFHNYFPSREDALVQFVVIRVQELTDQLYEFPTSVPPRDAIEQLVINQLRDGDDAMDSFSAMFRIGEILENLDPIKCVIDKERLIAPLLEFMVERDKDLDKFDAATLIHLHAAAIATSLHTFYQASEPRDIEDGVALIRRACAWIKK

[2] = tested on: AtsR (NCgl0886) (Corynebacterium glutamicum (RES167 parental strain)); test: EMSA; conditions: apparent KD; 10 mM Tris-HCl pH 7.4 (Fig. 6A legend: pH 8.0), 5 mM MgCl2, 50 mM KCl, 5% glycerol, 0.1% NP40, 1 ug poly(dI:dC), 1 mM DTT, 20 ul, 40 ng DNA, room temperature …
[3] = tested on: AtsR:C123SC187S (Corynebacterium glutamicum (RES167 parental strain)); test: EMSA; conditions: apparent KD; unit inferred, nM implied from AtsR; 10 mM Tris-HCl pH 7.4 (Fig. 6A legend: pH 8.0), 5 mM MgCl2, 50 mM KCl, 5% glycerol, 0.1% NP40, 1 ug poly(dI:dC), 1 mM DTT, 20 ul, 40 ng DNA, room temperature …
[4] = biological target: AtsR (NCgl0886), native protein as run on the size exclusion column (Corynebacterium glutamicum); test: not stated; reduced AtsR, Additional file 1 Fig. S10A (Purification of AtsR)
[5] = biological target: AtsR (NCgl0886), native protein as run on the size exclusion column (Corynebacterium glutamicum); test: SEC; Superdex 200 10/300 GL; AtsR incubated with an oxidant before the run (CHP in the text, H2O2 in the legend); two species, oxidized dimer and native dimer
[6] = biological target: AtsR (NCgl0886), native protein as run on the size exclusion column (Corynebacterium glutamicum); test: SEC; Superdex 200 10/300 GL, 50 mM potassium phosphate pH 7.4, 0.15 M NaCl, calibrated with mass markers; native AtsR untreated; AtsR:C123SC187S reduced (20 µM protein with 50 mM DTT)
[7] = biological target: His6-AtsR (Corynebacterium glutamicum); test: cross-linking; disulfide bond formed by oxidant: 20 µM protein with 5 mM H2O2 or 4 mM CHP for 30 min, boiled, 15% nonreducing SDS-PAGE, Coomassie stain
[8] = tested on: T2, AtsR:C123SC187S C123S;C188S (Corynebacterium glutamicum (RES167 parental strain)), ORF:74efc9ce; test: EMSA; conditions: 10 mM Tris-HCl pH 7.4 (Fig. 6A legend: pH 8.0), 5 mM MgCl2, 50 mM KCl, 5% glycerol, 0.1% NP40, 1 ug poly(dI:dC), 1 mM DTT, 20 ul, 40 ng DNA, room temperature …
T2 sequence: T1 sequence with C123S, C188S

[9] = biological target: His-tag-free AtsR:C123SC187S (Corynebacterium glutamicum); test: SEC; Superdex 200 10/300 GL, 50 mM potassium phosphate pH 7.4, 0.15 M NaCl, calibrated with mass markers; native AtsR untreated; AtsR:C123SC187S reduced (20 µM protein with 50 mM DTT)

Substance: GTGGGCAGCGGAATTTCCATACCTTTAAGGATATGCACCGGGGGAAACTATGGGGATTTTGGGGGAGGTTGTTACAAAACCATACGTCTGTGAAGATATGACGAGTGCATGCCCAAAATAATGCATAGGAAAAAGGAAGAGTTAACAATGCGTAAAGGAATTTCCCGCGTCCTCTCGGTAGCGGTTGCTAGTTCTATTGGATTCG (double strand) [Pncgl0884 (205 bp)]
binding [1]: no binding

Substance: GTTGTAGACAACAGTCAGATCGCCGTCATCGTATTCATCAAGAATATTGGTGACCTTCTCACGATCCTCTGCGGATATATCCATGGCAGAATCTGCATCAAAAGTCATCGAGATGATGCCGGTAGTCTCATCTGCACTCAGTGGACTAATCGACTCAATATCTGCGGCGATCTTCTCCGCAGGTACACCCTGAGCCTCCAGGGCTGGGGTCATCTGAGCAGCCACACCCTG (double strand) [ncgl0887 coding region control (232 bp)]
binding [1]: no binding

Substance: Pncgl0887 (fragment A, 232 bp)
Kd [2]: 34 nM | Kd [3]: 42 nM

stoichiometry N [4]: 2 | stoichiometry N [5]: 2 | stoichiometry N [6]: 2
Substance: AtsR (NCgl0886), native protein as run on the size exclusion column (natural protein)

stoichiometry N [7]: 2
Substance: His6-AtsR (natural protein)

Substance: GCCCACAGCATAGAACTAAAACAGTATGCTTGTCCTGCTAAATGTGAATTTTTAAGAGATTCATCCCACACAATTACGAAAAAACCAGATTGCCCACAAATTAGTCTTCGAACTTTAATCAACACCACACCCAAAGCTAAACTTGCGCTCGTTGTGCAAAATTGCATTCAGGCTGAAAAATTCCTAAAGGGACTCCGTCCGAATAATTGGAAAGCCCAGAAGAACAGTCAAC (double strand) [Pncgl0887 (fragment A, 232 bp)]
Kd [1]: 34 nM | binding [1]: binds | Kd [8]: 42 nM | binding [8]: binds

stoichiometry N [9]: 2
Substance: His-tag-free AtsR:C123SC187S (natural protein)
